{"source": "paper PMC12474247", "target": "small hepatitis delta antigen with C-terminal His6-tag (SHDAg-His6), native preparation (hepatitis D virus genotype 1)", "assay": "SEC", "note": "“And” between values parts separate entries of the source, which are not always exact repeats. Equal entries are not always repeated.", "data": [{"substance": "small hepatitis delta antigen with C-terminal His6-tag (SHDAg-His6), native preparation (natural protein)", "values": [{"measurement": "stoichiometry N", "result": "4 and 8"}]}]}
